Paper PMC5546430

Target: T1, human TMEM192 with a C-terminally fused HA epitope (human), Q8IY95
T1 chain: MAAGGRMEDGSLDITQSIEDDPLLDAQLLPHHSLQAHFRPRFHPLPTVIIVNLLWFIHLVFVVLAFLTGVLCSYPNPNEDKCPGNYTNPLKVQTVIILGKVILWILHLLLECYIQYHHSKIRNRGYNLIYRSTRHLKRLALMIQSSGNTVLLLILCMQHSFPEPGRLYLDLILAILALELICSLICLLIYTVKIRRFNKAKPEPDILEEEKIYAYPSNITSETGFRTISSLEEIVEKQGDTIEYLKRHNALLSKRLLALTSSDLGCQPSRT
Assay: non-reducing SDS-PAGE and Western blot; total lysates of transiently transfected HeLa cells denatured 5 min at 95°C in the absence of DTT; detection with anti-HA antibody 3F10; shows only disulphide-linked dimers
Settings: remark: other sources report otherwise

stoichiometry N: 2
B1: human TMEM192 with a C-terminally fused HA epitope, Q8IY95 1-271 (natural protein)
chain: T1 chain
